This data set addresses plasminogen.

plasminogen, sequence (P00747 20-810): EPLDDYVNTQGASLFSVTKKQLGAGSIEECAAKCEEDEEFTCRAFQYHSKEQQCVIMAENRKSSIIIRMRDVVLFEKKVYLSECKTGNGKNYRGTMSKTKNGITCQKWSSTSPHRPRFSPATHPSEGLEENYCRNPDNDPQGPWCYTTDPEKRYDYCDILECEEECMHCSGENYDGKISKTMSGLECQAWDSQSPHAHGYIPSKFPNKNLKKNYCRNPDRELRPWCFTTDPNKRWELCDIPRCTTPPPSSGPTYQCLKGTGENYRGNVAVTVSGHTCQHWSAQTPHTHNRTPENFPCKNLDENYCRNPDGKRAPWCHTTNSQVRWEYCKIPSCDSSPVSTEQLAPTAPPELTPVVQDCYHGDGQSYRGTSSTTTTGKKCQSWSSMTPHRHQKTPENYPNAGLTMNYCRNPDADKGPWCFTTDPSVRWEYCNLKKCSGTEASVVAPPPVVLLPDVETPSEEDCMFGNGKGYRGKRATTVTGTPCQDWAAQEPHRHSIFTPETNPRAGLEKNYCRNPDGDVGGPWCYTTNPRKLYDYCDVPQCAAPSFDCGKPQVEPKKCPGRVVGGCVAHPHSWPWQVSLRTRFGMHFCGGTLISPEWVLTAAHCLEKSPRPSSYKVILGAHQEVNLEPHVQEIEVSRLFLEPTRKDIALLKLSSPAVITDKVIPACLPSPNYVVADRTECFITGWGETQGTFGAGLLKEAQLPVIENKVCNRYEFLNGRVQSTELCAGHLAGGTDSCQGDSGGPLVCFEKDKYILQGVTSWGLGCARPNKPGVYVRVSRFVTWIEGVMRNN

B1: standard melanoma tPA 86/670 (protein)
chain: SYQVICRDEKTQMIYQQHQSWLRPVLRSNRVEYCWCNSGRAQCHSVPVKSCSEPRCFNGGTCQQALYFSDFVCQCPEGFAGKCCEIDTRATCYEDQGISYRGTWSTAESGAECTNWNSSALAQKPYSGRRPDAIRLGLGNHNYCRNPDRDSKPWCYVFKAGKYSSEFCSTPACSEGNSDCYFGNGSAYRGTHSLTESGASCLPWNSMILIGKVYTAQNPSAQALGLGKHNYCRNPDGDAKPWCHVLKNRRLTWEYCDVPSCSTCGLRQYSQPQFRIKGGLFADIASHPWQAAIFAKHRRSPGERFLCGGILISSCWILSAAHCFQERFPPHHLTVILGRTYRVVPGEEEQKFEVEKYIVHKEFDDDTYDNDIALLQLKSDSSRCAQESSVVRTVCLPPADLQLPDWTECELSGYGKHEALSPFYSERLKEAHVRLYPSSRCTSQHLLNRTVTDNMLCAGDTRSGGPQANLHDACQGDSGGPLVCLNDGRMTLVGIISWGLGCGQKDVPGVYTKVTNYLDWIRDNMRP
Consider B1, for which the “copolymerized plasminogen polyacrylamide gel electrophoresis (clearing zones)” value was “The positive control lane of standard melanoma tPA also demonstrated enzymatic activity at 66 and 72 kDa positions”.

B2: recombinant-K2S (r-K2S) expressed in non-gpIII fusion form in E. coli XM[K2S] (protein)
chain: SEGNSDCYFGNGSAYRGTHSLTESGASCLPWNSMILIGKVYTAQNPSAQALGLGKHNYCRNPDGDAKPWCHVLKNRRLTWEYCDVPSCSTCGLRQYSQPQFRIKGGLFADIASHPWQAAIFAKHRRSPGERFLCGGILISSCWILSAAHCFQERFPPHHLTVILGRTYRVVPGEEEQKFEVEKYIVHKEFDDDTYDNDIALLQLKSDSSRCAQESSVVRTVCLPPADLQLPDWTECELSGYGKHEALSPFYSERLKEAHVRLYPSSRCTSQHLLNRTVTDNMLCAGDTRSGGPQANLHDACQGDSGGPLVCLNDGRMTLVGIISWGLGCGQKDVPGVYTKVTNYLDWIRDNMRP
Turning to B2, the “copolymerized plasminogen polyacrylamide gel electrophoresis (clearing zones)” value is “Transparent areas of serine protease digested plasminogen were observed only in the ammonium sulfate precipitated culture supernatants of E. coli XM[K2S] at 34 and 37 kDa postions”; the “fibrinogen-dependent enzymatic activity (amidolytic assay, plasminogen and S-2251)” value was “The culture supernatant r-K2S gave the fibrinogen-dependent enzymatic activity of 7 IU/ml”; the “fibrinogen-dependent enzymatic activity of the periplasmic r-K2S preparation (amidolytic assay, plasminogen and S-2251)” value was “notably low enzymatic activity, which was below the sensitivity of the test (0.25 IU/ml)”.

The values are drawn from patent US20030013150.
